# Reference: patent publication US11402384B2 (Duke University, priority 2015, dated 2022)
# Where two headings read alike, the source gives them in different places. Marks after values point to notes of the source that are not given here.
# Experiments:
# [1] = Experimental: Eight homologs that were predicted to be glucose-binding proteins (FIG. 4, Table 3) were selected to probe different degrees of sequence identity to the ttGBP1 seed, and their glucose-binding properties were determined experimentally. These experiments comprised four successive steps: • 1. Synthetic gene construction. The amino acid sequence of the homology leads were backtranslated into DNA sequences. These were optimized for directing heterologous cytoplasmic expression of the protein homologues in E. coli, using either the OrfOpt or OrfMorph programs. These programs predict mRNA sequences that direct high-level protein expression in E. coli. The predicted gene sequences were assembled de novo from synthetic oligonucleotides. • 2. Heterologous protein expression of the homologues in E. coli. Plasmids carrying the synthetic expression constructs (see above) were transformed into KRX competent cells (Promega). Protein production was induced in bacterial cultures of these cultures, as described in the Materials and Methods. • 3. Purification of successfully expressed protein using immobilized metal affinity chromatography. • 4. Verification of glucose binding. Determination of the glucose-binding properties of the purified proteins using a thermal stability shift assay.
# Analysis of glucose-binding properties using thermal melts. The thermal stability of purified GBP candidate proteins was determined by measuring the temperature-dependence of the fluorescence signal of an extrinsically added dye, SYPRO, using a Roche LightCycler (Layton and Hellinga, 2010, Biochemistry, 49, 10831-41). The total fluorescence intensity, S, is given by S=βFfF+βUfU 11 where fF and fU are the fractions of protein in the folded and unfolded states, respectively, and βF and βU the fluorescence baselines of these two states. To get the fractions of the two states, we have
# [formula] where KU(T) is the temperature-dependent unfolding equilibrium constant, which by the van't Hoff approximation is given by
# [formula] Where T is the temperature, Tm, the unfolding reaction transition mid-point temperature, and ΔHU the enthalpy of unfolding.
# [2] = Ratiometric fluorescence glucose titration of fluorescent conjugates; type: binding; design: key to Shape (fluorescence response to glucose) / Change (fluorescence response to glucose): m, monochromatic; d, dichromatic (i.e. spectral shape change); 0, no change; settings: tsGBP 13C affinity mutants, Acrylodan or Badan conjugates
# Outline: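 Single-cysteine glucose-binding protein mutants labelled site-specifically with thiol-reactive environmentally sensitive fluorophores; emission spectra recorded during glucose titration to detect ligand-mediated intensity and spectral-shape changes for ratiometric read-out. Temperature- and ligand-dependent fluorescence landscapes acquired in 1K steps; binding fitted to single-site fractional saturation.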
# [3] = ligand-free protein, SYPRO Orange, Roche LightCycler
Molecule,"Thermostability ^apoTm [1, 3] [°C]",Change (fluorescence response to glucose) [2],also measured
"smGBP7: glucose-binding protein from Staphylothermus marinus, SEQ ID NO: 15 (protein, smGBP7 (with signal peptide replaced with M and a GGSHHHHHH at C-terminus)) MELVIYHWWTAGGEREAINAVFQVFKQKYPNIQIVENPVAGGAGSVMKSVIIGLLAAGTPPDTFQVHAGAELKEYVDAGYLAPIDDIWSKLGLDKVIPSTLQVMAKFNGHYYAVPIDVHRSNVLWYNPKIFNELGIINKFGDPRNWSVDTLLQVARYIKQQRPDIAPIALASRNKWPVTHLFEVLLANAGGPETYVKFFTGKFNYNDPNDPVVQTVKKVLTVMATMAKEGLFNSNHPELTWDQAAALVAEGKAAMFIHGDWVAGYYIANNYKYGKDWAAAPFPKNIFILLSDAFELPKNAPHPEAAKDWLMVVGSKEAQEKFNLIKGSIPARTDVSPKYPDPYRPETAEDFQKSTLIPSAVHGGIAKEAFMTDLHNILTSMLTAVSVGTPVDNAVNTALAQILQSVKTSGLASFWKGYTIDYFITKRGGSHHHHHH",–,–,Thermostability ^apoTm ([1]; determined using fluorescent Acrylodan and/or Badan conjugates): 40^f ° C.
"tnGBP4: glucose-binding protein from Thermotoga neapolitana, SEQ ID NO: 12 (protein, tnGBP4 (with signal peptide replaced with M and a GGSHHHHHH at C-terminus)) MLEIFSWWTAGGEAEALEALIKVFNKYYPDVEVINATVAGGAGTNAKAVLKTRILGGNPPDSFQVHAGMELIDTYVIPGYMTPITNLLEQWGVMDKFPKGILEMASYEGEIYSIPVNVHRGNVVFYNKKIAEEIGMNEPPKTWDEFIMYLQKAKEKGYVGLALGDKNKWTALHLFETILLGVLGPNDYNGLWKGEVSFNDPRIRRAFEIMNKLLDYVNEDHAALAWQDATRLVYEGKALANVMGDWAEGYLKSVGWEPGKDFGWFAVPETQNAFMVVSDTFGLPKNAPHKENAVKWLKVVASVEGQDAFNPIKGSIPARLDADRSKYDIYLQWSMEDFATKALTPSIAHGSAAPEGFVTTLNDIINRFVTTRDIDSALEELLMAAEDEGYLVEGGSHHHHHH",>100,–,–
"asGBP8: glucose-binding protein from Arthrobacter sp., SEQ ID NO: 16 (protein, asGBP8 (with signal peptide replaced with M and a GGSHHHHHH at C-terminus)) MKLEITSWWTSGSEADALNVLIDGVKAAKPGLSVDNAAVSGGGGANARQALAARLQAGSPPDAWQVHPAGQLKSYVDGGQVADLTDLWTEGDWASQMPKDVAEAQQVDGKYYTVPIGVHRGNVLWTNPAVLSKANVTIDADAGIDGLISSLEQVQASGTTPLALGDKDIFASSQLLESLIMSRAGADNWTKLFTSEYSFDAPEVKQALEDYKTILSFANKDHSAITWDEAAKKMADGEAAVNLMGDWAYGELLNAGKKPGTDFAWVAFPGKEDIFDYVGDGFSIPANNIPHAEAARAWLKTLMDPKIQTEFAAKKGSIPAVTSADISGLSEYQQEAAKSLASGAVVSSLAHAQAAGAEFAQTYADAVSTFNGSGNTDAFIASMTQAQKTQLGGSHHHHHH",58,–,–
"D278L A: tsGBP2.13C.D278L (SEQ ID NO: 52) Acrylodan conjugate (conjugate, Acrylodan conjugate; tsGBP2.13C.D278L (13C, 278L double substitution mutant with signal peptide replaced with M and a GGSHHHHHH at C-terminus)) MKLEIFSWWAGDCGPALEALIRLYKQKYPGVEVINATVTGGAGVNAKAVLKTRMLGGDPPDTFQVHAGQELIGTWVVADRMEDLTSLFRQEGWLQAFPKGLIDLLSYKGGIWSVPVNIHRSNVMWYIPAKLKEWGVTPPKTWAEFLATAQTLKRKGLEAPLALGENWTQQHLWESVALATLGADGWNNLWSGKLKFTDPKAVAVWETFGKVLDAANKDAAGLSWQQAVDRVVQGKAAFNIMGDWAAGYMSTTLKLKPGTDFAWTPSPGTSGIFMMLSLSFGLPKGAKNRQNAINWLKLVGSKEGQDTFNPLKGSIAARLDSDPAKYNAYGQSAMKDWKSNRIVGSLVHGAVAPESFMSQFGTVMEIFLQSRNPQAAANAAQAIANQVGLGRGGSHHHHHH",–,m,–
"K312M B: tsGBP2.13C.K312M (SEQ ID NO: 53) Badan conjugate (conjugate, Badan conjugate; tsGBP2.13C.K312M (13C, 312M double substitution mutant with signal peptide replaced with M and a GGSHHHHHH at C-terminus)) MKLEIFSWWAGDCGPALEALIRLYKQKYPGVEVINATVTGGAGVNAKAVLKTRMLGGDPPDTFQVHAGQELIGTWVVADRMEDLTSLFRQEGWLQAFPKGLIDLLSYKGGIWSVPVNIHRSNVMWYIPAKLKEWGVTPPKTWAEFLATAQTLKRKGLEAPLALGENWTQQHLWESVALATLGADGWNNLWSGKLKFTDPKAVAVWETFGKVLDAANKDAAGLSWQQAVDRVVQGKAAFNIMGDWAAGYMSTTLKLKPGTDFAWTPSPGTSGIFMMLSDSFGLPKGAKNRQNAINWLKLVGSKEGQDTFNPLMGSIAARLDSDPAKYNAYGQSAMKDWKSNRIVGSLVHGAVAPESFMSQFGTVMEIFLQSRNPQAAANAAQAIANQVGLGRGGSHHHHHH",–,m,Kd ([2]; read-out: Glucose affinity ^appKd): 26 mM; Kd ([2]; read-out: Glucose affinity ^trueKd): 39 mM
"D278L B: tsGBP2.13C.D278L (SEQ ID NO: 52) Badan conjugate (conjugate, Badan conjugate; tsGBP2.13C.D278L (13C, 278L double substitution mutant with signal peptide replaced with M and a GGSHHHHHH at C-terminus)) MKLEIFSWWAGDCGPALEALIRLYKQKYPGVEVINATVTGGAGVNAKAVLKTRMLGGDPPDTFQVHAGQELIGTWVVADRMEDLTSLFRQEGWLQAFPKGLIDLLSYKGGIWSVPVNIHRSNVMWYIPAKLKEWGVTPPKTWAEFLATAQTLKRKGLEAPLALGENWTQQHLWESVALATLGADGWNNLWSGKLKFTDPKAVAVWETFGKVLDAANKDAAGLSWQQAVDRVVQGKAAFNIMGDWAAGYMSTTLKLKPGTDFAWTPSPGTSGIFMMLSLSFGLPKGAKNRQNAINWLKLVGSKEGQDTFNPLKGSIAARLDSDPAKYNAYGQSAMKDWKSNRIVGSLVHGAVAPESFMSQFGTVMEIFLQSRNPQAAANAAQAIANQVGLGRGGSHHHHHH",–,0,–
"koGBP5: glucose-binding protein from Kosmotoga olearia, SEQ ID NO: 13 (protein, koGBP5 (with signal peptide replaced with M and a GGSHHHHHH at C-terminus)) MLEIFSWWTGGGEEEGLLALFDVFHKYYPDVEIINATVAGGAGTNAKAVLKTRMLGGNPPDSFQVHGGMELIDTYVVTGMMEPITDLLEEWGIIDKFPEDILKIASYKGEVYSIPVNVHRGNVVFYNKAILEEVGIEKVPSTWPEFIEVLKKIKKAGYIPLALGDKNKWTATHLFEDILLSTLGPYNYNGLWNGRTSFEHQGVKEALEIFKELMNYVNPNHASLTWQDATLLVFEGKAAFNVMGDWAEGYLKTLGWTPGKEFGWMVVPGTKGSFMVVTDTFGLPKNAPHRENAIKWLKIISSVEGQDTFNPIKGSIPARIDADRSLYDDYLIWSMDDFATNALCPSIIHGSAAPEAFVTALNDTINMFITRKDVKKALKEIIYAAEDYLEGGSHHHHHH",>100,–,–
"bhGBP6: glucose-binding protein from Bacillus halodurans, SEQ ID NO: 14 (protein, bhGBP6 (with signal peptide replaced with M and a GGSHHHHHH at C-terminus)) MLEIFSWWTGAGEEDGLLALIELFEEKHPEIEVDNAAVAGGAGTNAKAVLTSRMQGNDPPGTFQVHGGAELNDSWVAAGQMDPLNDLFEAEGWADKFPEELIELVSKDGNIYSVPVNIHRGNVLWYNTEIFEEHGLEVPTTFEEFFDVADALQEAGVTPLALGDREPWAATHLFETVLLGTLGADDYNKLWSGEVGMDDPRVEEAAEIFIRMLDYVNEDHSSRNWQDASQLVAQGEAAMNVMGDWAKGYFVNDLNLAVKEDFGWAATPGTEGTFMVITDTFGLPTGVENPEVVKSFLAVLGSQEGQDAFNPLKGSIPARVDADVSKYDEYGQETIEDFKSAELSPSLAHGSAANEGFLTQVNQAINIFVTQKDVDSFVDSLKQYQPGGSHHHHHH",53,–,–
